Laboratory results from PMC9333441.

What was measured:
human ACE2-Fc (human) = human ACE2-Fc (human) (UniProt Q9BYF1); experiment: BLI
[1] = target: ACE2 on Vero-E6 cells (African green monkey (endogenous in Vero-E6)); experiment: flow cytometry on cells

With “soluble epitope-tagged RBD of Wuhan-Hu-1 SARS-CoV-2 (domain or fragment)” the Kd (human ACE2-Fc (human)) was 9.3 nM and the EC50 [1] was 17.4 nM.
